# T1: GST-leupaxin FL (mouse, UniProt Q99N69 1-386)
# T1 sequence (looked up): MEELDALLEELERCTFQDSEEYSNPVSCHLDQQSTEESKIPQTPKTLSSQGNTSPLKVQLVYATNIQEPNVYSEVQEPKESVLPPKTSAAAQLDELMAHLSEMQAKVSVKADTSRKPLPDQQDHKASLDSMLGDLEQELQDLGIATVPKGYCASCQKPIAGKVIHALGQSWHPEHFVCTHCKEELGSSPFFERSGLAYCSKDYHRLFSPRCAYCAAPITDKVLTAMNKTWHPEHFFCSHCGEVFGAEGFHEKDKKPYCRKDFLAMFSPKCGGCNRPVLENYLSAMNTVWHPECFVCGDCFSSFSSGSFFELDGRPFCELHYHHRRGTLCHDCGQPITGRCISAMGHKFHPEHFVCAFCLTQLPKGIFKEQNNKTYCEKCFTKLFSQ
# B1: HisSUMO-tagged kindlin-3 F0 domain (domain or fragment, UniProt Q8K1B8 1-97, looked up)
# chain: MAGMKTASGDYIDSSWELRVFVGEEDPEAQSVTLRVTGESHIGGVLLKIVEEINRKQDWSDHAIWWEQKRQWLLQTHWTLDKYGILADARLFFGPQH
# Target: T1, GST-leupaxin FL
# Assay: pull-down
binder,measurement,value
B1,binding result,binds
